What was measured:
[1] = target: T1, GST-APXL-1 PDZ domain 1 (Homo sapiens (Human)), Q13796; test: G assay titration, PDZ 0.5 ug/ml
T1 chain: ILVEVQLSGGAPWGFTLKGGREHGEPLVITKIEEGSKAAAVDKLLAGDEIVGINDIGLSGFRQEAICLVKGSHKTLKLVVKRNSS

[2] = target: T2, GST-PDZ-73 PDZ domain 2 (Homo sapiens (Human)), Q9Y6N9; test: G' assay; also: key of the grades not given here
T2 chain: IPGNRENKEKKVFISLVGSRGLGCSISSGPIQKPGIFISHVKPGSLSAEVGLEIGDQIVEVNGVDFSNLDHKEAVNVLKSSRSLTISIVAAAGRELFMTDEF

[3] = target: T3, GST-TIP-1 (Example 3) (human), O14907; test: ratio of G assay Kd values
T3 chain: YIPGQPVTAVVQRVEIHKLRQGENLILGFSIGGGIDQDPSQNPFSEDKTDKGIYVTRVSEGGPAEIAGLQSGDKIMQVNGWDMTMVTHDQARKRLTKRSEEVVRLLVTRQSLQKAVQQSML

[4] = target: GST-DLG2 PDZ domain 1 (Homo sapiens (Human)), Q15700; test: G' assay; also: key of the grades not given here
[5] = target: T4, GST-PSD95 PDZ domain 2 (Homo sapiens); test: G' assay; also: key of the grades not given here
T4 chain: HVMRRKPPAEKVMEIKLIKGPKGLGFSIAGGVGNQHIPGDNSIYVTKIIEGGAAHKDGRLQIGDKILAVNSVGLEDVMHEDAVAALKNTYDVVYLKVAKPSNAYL

[6] = target: T5, GST-FLJ 10324 PDZ domain 1 [GST: P08515]; test: G assay titration, PDZ 1 ug/ml
T5 chain: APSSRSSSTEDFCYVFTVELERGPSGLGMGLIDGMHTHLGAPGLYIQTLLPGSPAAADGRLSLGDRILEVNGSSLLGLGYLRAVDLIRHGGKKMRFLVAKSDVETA

[7] = target: T6, GST-MUPP1 PDZ domain 9 (Homo sapiens (Human)), O75970; test: G' assay; also: key of the grades not given here
T6 chain: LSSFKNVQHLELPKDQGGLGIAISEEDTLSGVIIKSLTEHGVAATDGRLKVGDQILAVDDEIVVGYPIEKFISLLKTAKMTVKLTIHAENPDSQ

[8] = target: T7, GST-FLJ21687 PDZ domain 1 (Homo sapiens (Human)), Q9H6Y5; test: G' assay; also: key of the grades not given here
T7 chain: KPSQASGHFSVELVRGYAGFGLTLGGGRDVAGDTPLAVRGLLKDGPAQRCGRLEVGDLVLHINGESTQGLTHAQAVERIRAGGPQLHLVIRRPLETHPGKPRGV

[9] = target: GST-Atrophin-1 Interacting Protein PDZ domain 1 (Rattus norvegicus (Rat)), O88382; test: G assay titration, PDZ 0.5 ug/ml
Sequence of GST-Atrophin-1 Interacting Protein PDZ domain 1 (Rattus norvegicus (Rat)), O88382 (O88382 408-511): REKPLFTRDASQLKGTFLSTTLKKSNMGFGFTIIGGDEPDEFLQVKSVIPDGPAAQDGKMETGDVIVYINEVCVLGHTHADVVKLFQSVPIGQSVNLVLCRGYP

[10] = target: T8, GST-DLG2 PDZ domain 2 (Homo sapiens (Human)), Q15700; test: G assay titration, PDZ 0.5 ug/ml
T8 chain: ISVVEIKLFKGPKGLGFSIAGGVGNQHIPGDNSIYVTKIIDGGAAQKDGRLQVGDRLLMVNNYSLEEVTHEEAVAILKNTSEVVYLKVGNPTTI

[11] = target: GST-BAI-1 Associated Protein PDZ domain 3 (Homo sapiens (Human)), Q96QZ7; test: G assay titration, PDZ 0.5 ug/ml
Sequence of GST-BAI-1 Associated Protein PDZ domain 3 (Homo sapiens (Human)), Q96QZ7 (Q96QZ7 other isoform, or with tags, fused parts or gaps): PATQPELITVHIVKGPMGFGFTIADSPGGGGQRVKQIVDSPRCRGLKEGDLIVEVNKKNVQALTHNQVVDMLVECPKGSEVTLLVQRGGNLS

[12] = target: GST-DLG1 PDZ domain 1 (Homo sapiens), Q12959; test: G assay titration, PDZ 0.5 ug/ml
[13] = target: T9, GST-SYNTENIN PDZ domain 2 (Homo sapiens (Human)), O00560; test: G' assay; also: key of the grades not given here
T9 chain: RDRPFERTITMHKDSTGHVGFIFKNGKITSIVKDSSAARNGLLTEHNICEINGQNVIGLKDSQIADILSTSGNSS

[14] = target: T10, GST-PDZK1 PDZ domain 1 (Homo sapiens (Human)), Q5T2W1; test: G' assay; also: key of the grades not given here
T10 chain: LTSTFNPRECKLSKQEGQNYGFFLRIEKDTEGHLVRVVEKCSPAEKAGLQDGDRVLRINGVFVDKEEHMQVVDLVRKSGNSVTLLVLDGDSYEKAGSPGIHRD

[15] = target: T11, GST-PDZK1 PDZ domain 3 (Homo sapiens (Human)), A8MUH7; test: G' assay; also: key of the grades not given here
T11 chain: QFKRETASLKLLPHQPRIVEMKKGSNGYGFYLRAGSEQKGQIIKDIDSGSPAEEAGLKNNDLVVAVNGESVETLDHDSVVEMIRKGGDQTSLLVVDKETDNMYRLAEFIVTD

[16] = target: T12, GST-AF6 PDZ domain 1 (Homo sapiens (Human)), P55196; test: G' assay; also: key of the grades not given here
T12 chain: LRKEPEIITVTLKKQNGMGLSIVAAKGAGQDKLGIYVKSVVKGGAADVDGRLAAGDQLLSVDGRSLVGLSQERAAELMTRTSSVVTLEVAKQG

[17] = target: T13, GST-KIAA0303 PDZ domain 1 (Homo sapiens (Human)), O15021; test: G' assay; also: key of the grades not given here
T13 chain: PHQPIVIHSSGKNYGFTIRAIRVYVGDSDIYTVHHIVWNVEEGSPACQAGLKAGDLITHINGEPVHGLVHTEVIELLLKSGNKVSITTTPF

[18] = target: GST-KIAA1634 PDZ domain 5 (Homo sapiens (Human)), Q5TCQ9; test: G assay titration, PDZ 1 ug/ml
Sequence of GST-KIAA1634 PDZ domain 5 (Homo sapiens (Human)), Q5TCQ9 (Q5TCQ9 other isoform, or with tags, fused parts or gaps): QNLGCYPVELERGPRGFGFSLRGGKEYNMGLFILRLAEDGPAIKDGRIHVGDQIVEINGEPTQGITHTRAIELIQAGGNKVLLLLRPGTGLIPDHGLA

[19] = target: T14, GST-LIM Protein PDZ domain 1 (Homo sapiens (Human)), Q96HC4; test: G assay titration, PDZ 1 ug/ml
T14 chain: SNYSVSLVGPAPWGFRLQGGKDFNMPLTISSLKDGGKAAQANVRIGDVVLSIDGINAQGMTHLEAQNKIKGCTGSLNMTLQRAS

[20] = target: T15, GST-TIP1 PDZ domain 1 (Table 9 insert) (Homo sapiens (Human)), O14907; test: G assay titration, PDZ 0.5 ug/ml
T15 chain: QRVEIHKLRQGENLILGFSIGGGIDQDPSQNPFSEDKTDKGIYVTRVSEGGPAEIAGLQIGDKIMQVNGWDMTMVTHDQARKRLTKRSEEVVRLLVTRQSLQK

PIPAGGCTFSGIFPTLTSPL (modifications not checked) [KIA 1481]
Kd [1]: 600 nM
Classification [2]: 1 A450 class

QISPGGLEPPSEKHFRETEV (modifications not checked) [TAX]
fold stronger binding than CD95 [3]: > 3000 fold
Classification [4]: 2 A450 class
Classification [5]: 1 A450 class

TQGFPGPATWRRISSLESEV (modifications not checked) [NMDA Glutamate Receptor 2C (cysteine-free)]
Classification [4]: 4 A450 class

KTMPAAMYRLLTAQEQPVYI (modifications not checked) [MINT-1]
Kd [6]: 1000 nM
Classification [7]: 3 A450 class

HDFRRAFKKILARGDRKRIV (modifications not checked) [alpha-2A Adrenergic receptor]
Classification [8]: 1 A450 class

VGTLLLERVIFPSVKIATLV (modifications not checked) [AdenoE4 typ9]
Kd [9]: 20 nM
Kd [10]: 50 nM
Kd [11]: 75 nM
Kd [12]: 100 nM

ILNSIQVMRAQMNQIQSVEV (modifications not checked) [ephrin B2]
Classification [13]: 2 A450 class
Classification [14]: 1 A450 class
Classification [15]: 1 A450 class

ELLQFCRTPNPALKNGQYWV (modifications not checked) [CSPG4 (chondroitin sulfae proteoglycan 4, melanoma-associated)]
Classification [16]: 5 A450 class
Classification [17]: 1 A450 class

VPGALDYAAFSSALYGESDL (modifications not checked) [a-actinin 2]
Kd [18]: 2000 nM
Kd [19]: 2000 nM
Kd [20]: 1000 nM
